Measurements from article PMC12255303, “Regulation of a phage defence island by RptR, a novel repressor that controls restriction–modification systems in diverse bacteria”.
Residue numbers refer to the chain shown, from its start. In names and notes the source's numbering stands.

Key:
[1] = biological target: RptR (RMS-proximal transcriptional regulator) with an N-terminal His6 tag and 3C protease cleavage site (Escherichia coli O127:H6 E2348/69 (EPEC)); assay: SEC; analytical SEC on Superdex 75 Increase 10/300 GL, calibrated with five low-MW standards; MW of His6-3C-RptR interpolated from elution volumes of the purification (SEC buffer 25 mM Tris-HCl pH 8, 200 mM KCl)
RptR (His6-3C-RptR) [2] = biological target: T1, RptR (His6-3C-RptR) (Escherichia coli O127:H6 E2348/69 (EPEC), UniProt B7UP23 1-79); assay: EMSA; up to 1.2 uM RptR; EMSA: 25 mM Tris-HCl pH 8, 150 mM NaCl, 5 mM MgCl2, 0.05 uM dsDNA, 37 C 30 min then 4 C; 8% TBE-PAGE at 4 C, SYBR Gold; conditions: protein: recombinant; tags: N-terminal His6 and 3C protease site (cleavage not described); chain copies: 2; blunt
T1 sequence: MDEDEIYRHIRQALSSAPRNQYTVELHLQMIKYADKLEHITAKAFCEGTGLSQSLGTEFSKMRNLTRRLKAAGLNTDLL

RptR (His6-3C-RptR) [3] = biological target: T1, RptR (His6-3C-RptR); assay: EMSA; per RptR dimer; Hill coefficient 3.4; EMSA: 25 mM Tris-HCl pH 8, 150 mM NaCl, 5 mM MgCl2, 0.05 uM dsDNA, 37 C 30 min then 4 C; 8% TBE-PAGE at 4 C, SYBR Gold; conditions: protein: recombinant; tags: N-terminal His6 and 3C protease site (cleavage not described); chain copies: 2; blunt
RptR (His6-3C-RptR) [4] = biological target: T1, RptR (His6-3C-RptR); assay: EMSA; single shift; conditions: protein: recombinant; tags: N-terminal His6 and 3C protease site (cleavage not described); chain copies: 2; blunt
RptR (His6-3C-RptR) [5] = biological target: T1, RptR (His6-3C-RptR); assay: EMSA; same shift as DR1/s/3; conditions: protein: recombinant; tags: N-terminal His6 and 3C protease site (cleavage not described); chain copies: 2; blunt
RptR (His6-3C-RptR) [6] = biological target: T1, RptR (His6-3C-RptR); assay: EMSA; higher shift only; conditions: protein: recombinant; tags: N-terminal His6 and 3C protease site (cleavage not described); chain copies: 2; blunt
RptR (His6-3C-RptR) [7] = biological target: T1, RptR (His6-3C-RptR); assay: EMSA; binding abolished; conditions: protein: recombinant; tags: N-terminal His6 and 3C protease site (cleavage not described); chain copies: 2; blunt

RptR (RMS-proximal transcriptional regulator) with an N-terminal His6 tag and 3C protease cleavage site (natural protein)
stoichiometry N [1]: 2

B1: DRs/s/s (dsDNA)
DNA 1: AGTTCTTGAACCTGATACCACATTGAATCTATTGAATCTATTGAATCTACTTATCCATTA
DNA 2: TAATGGATAAGTAGATTCAATAGATTCAATAGATTCAATGTGGTATCAGGTTCAAGAACT
binding result (RptR (His6-3C-RptR) [2]): no binding

B2: DR1/2/3 (WT) (dsDNA)
DNA 1: AGTTCTTGAACCTGATACCACATTTAGCTAATTTAGCTAATTTAGCTAACTTATCCATTA
DNA 2: TAATGGATAAGTTAGCTAAATTAGCTAAATTAGCTAAATGTGGTATCAGGTTCAAGAACT
Kd (RptR (His6-3C-RptR) [3]): 185 nM

B3: DRs/2/3 (dsDNA)
DNA 1: B2 DNA 1 with T25G, G27A, C28T, T29C, A30T
DNA 2: B2 DNA 2 with T31A, A32G, G33A, C34T, A36C
binding result (RptR (His6-3C-RptR) [4]): binds

B4: DR1/r/3 (dsDNA)
DNA 1: B2 DNA 1 with T32G, T33A, T34G, C37A, T38G, A40G
DNA 2: B2 DNA 2 with T21C, A23C, G24T, A27C, A28T, A29C
binding result (RptR (His6-3C-RptR) [5]): binds

B5: DR1/s/3 (dsDNA)
DNA 1: B2 DNA 1 with T34G, G36A, C37T, T38C, A39T
DNA 2: B2 DNA 2 with T22A, A23G, G24A, C25T, A27C
binding result (RptR (His6-3C-RptR) [6]): binds

B6: DR1/2/3 C6G (labelled C5G in Fig S4) (dsDNA)
DNA 1: B2 DNA 1 with C28G, C37G, C46G
DNA 2: B2 DNA 2 with G15C, G24C, G33C
binding result (RptR (His6-3C-RptR) [7]): no binding

B7: DR1/2/s (WT control) (dsDNA)
DNA 1: B2 DNA 1 with T43G, G45A, C46T, T47C, A48T
DNA 2: B2 DNA 2 with T13A, A14G, G15A, C16T, A18C
binding result (RptR (His6-3C-RptR) [4]): binds
